Assay results reported in PMC2920228.

Experiments:
[1] = molecular target: AgsA (aggregation-suppressing protein, small heat shock protein), wild type, His-tagged (Salmonella enterica serovar Typhimurium); assay: SEC; Superdex 200 XK 16/70, 20 mM Tris-HCl pH 8.0, 1 mM EDTA, 100 mM NaCl, run at 25°C; apparent mass from a calibration curve
[2] = molecular target: AgsA (aggregation-suppressing protein, small heat shock protein), wild type, His-tagged (Salmonella enterica serovar Typhimurium); assay: FRET or BRET; data not shown; subunit exchange of fluorescein- and rhodamine-labelled AgsA at 45°C, 40 min
[3] = molecular target: ΔC11, C-terminal 11 AA truncated AgsA, His-tagged (Salmonella enterica serovar Typhimurium); assay: SEC; Superdex 200 XK 16/70, 20 mM Tris-HCl pH 8.0, 1 mM EDTA, 100 mM NaCl, run at 37°C
[4] = molecular target: ΔC11, C-terminal 11 AA truncated AgsA, His-tagged (Salmonella enterica serovar Typhimurium); assay: SEC; Superdex 200 XK 16/70, 20 mM Tris-HCl pH 8.0, 1 mM EDTA, 100 mM NaCl, run at 42°C
[5] = molecular target: ΔC11, C-terminal 11 AA truncated AgsA, His-tagged (Salmonella enterica serovar Typhimurium); assay: SEC

| Substance | stoichiometry N [1] [subunits] | decrease in donor fluorescence after 40 min [2] [%] | stoichiometry N [3] [subunits] | stoichiometry N [4] [subunits] | stoichiometry N [5] [subunits] |
| --- | --- | --- | --- | --- | --- |
| AgsA (aggregation-suppressing protein, small heat shock protein), wild type, His-tagged (natural protein) | 22 | 40 | – | – | – |
| ΔC11, C-terminal 11 AA truncated AgsA, His-tagged (domain or fragment) | – | – | 2 | 2 | 3 |
